Legend:
[1] = biological target: T1, Fc tagged human TNFR1 (Sino Biological) (human, UniProt P19438 22-211, limits assumed); experiment: SPR, Biacore single cycle kinetics, stability study, before freezing (t=0)
T1 construct: Bought reagent; also called hTNFR1; hTNFR1-Fc; not shown: Fc tag of the bought protein
T1 sequence (looked up): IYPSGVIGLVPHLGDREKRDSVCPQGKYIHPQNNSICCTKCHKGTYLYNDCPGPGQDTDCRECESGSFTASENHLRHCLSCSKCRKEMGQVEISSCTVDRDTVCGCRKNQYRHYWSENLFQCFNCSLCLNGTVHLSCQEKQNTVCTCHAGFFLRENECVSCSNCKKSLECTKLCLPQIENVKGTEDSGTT
Method: (§1) Due to the limit in the number of available flow cells for analysis (three Fc per analysis, Fc2, Fc3 and Fc4, with Fc1 always being used as blank reference for non-specific subtraction), receptor binding was assessed in two separate overlapping runs using either: hTNFR1 (Fc2), hTNFR2 (Fc3) and mTNFR1 (Fc4), or; hTNFR1 (Fc2), […] and mTNFR2 (Fc4). Receptors were diluted in running buffer to a concentration of ˜4 μg/mL and at the start of each cycle loaded onto Fc2, Fc3 and Fc4 of a Protein A chip (GE Healthcare, Little Chalfont, UK) at a flow rate of 10 μL/min to give an RU of 40-100. The surface was then allowed to stabilise. Single cycle kinetic data was obtained at a flow rate of 45 μL/min. […] The association phase for the three injections of increasing concentrations of TNF was monitored for 240 seconds and a single dissociation phase was measured for 2700 seconds following the last injection of TNF. Regeneration of the Protein A surface was conducted using 10 mM glycine-HCl pH 1.5. The signal from the reference channel Fc1 (no receptor) was subtracted from that of Fc2, Fc3 and Fc4 to correct for differences in non-specific binding to a reference surface.
(§2) At day zero (prior to freezing) and following thawing on ice after 3 months and 1 year the following assays were performed: [0341] SDS-PAGE [0342] OD280 nm [0343] Single cycle Biacore for binding to hTNFR1, hTNFR2 and mTNFR1

[2] = biological target: T2, Fc tagged human TNFR2 (Sino Biological) (human, UniProt P20333 23-257); experiment: as above
T2 construct: Bought reagent; also called hTNFR2; hTNFR2-Fc; not shown: Fc tag of the bought protein
T2 sequence (looked up): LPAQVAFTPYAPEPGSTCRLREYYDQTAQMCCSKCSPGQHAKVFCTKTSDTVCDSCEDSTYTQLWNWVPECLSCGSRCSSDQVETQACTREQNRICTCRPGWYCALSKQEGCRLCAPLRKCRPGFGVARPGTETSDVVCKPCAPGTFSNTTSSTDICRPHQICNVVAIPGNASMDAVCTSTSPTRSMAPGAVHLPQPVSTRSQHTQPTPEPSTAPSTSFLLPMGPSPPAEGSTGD
Method: as §1, §2

[3] = biological target: T3, Fc tagged mouse TNFR1 (Sino Biological) (mouse, UniProt P25118 22-212, limits assumed); experiment: as above
T3 construct: Bought reagent; also called mTNFR1; mTNFR1-Fc; not shown: Fc tag of the bought protein
T3 sequence (looked up): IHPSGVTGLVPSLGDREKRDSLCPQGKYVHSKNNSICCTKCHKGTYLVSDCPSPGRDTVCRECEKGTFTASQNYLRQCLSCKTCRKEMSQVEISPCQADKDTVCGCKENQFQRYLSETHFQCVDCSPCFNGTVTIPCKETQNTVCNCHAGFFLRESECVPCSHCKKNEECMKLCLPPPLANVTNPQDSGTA
Method: as §1, §2

[4] = biological target: T1, Fc tagged human TNFR1 (Sino Biological); experiment: SPR, Biacore single cycle kinetics, stability study, after 1 year at -80° C.
Method: as §1, §2

[5] = biological target: T2, Fc tagged human TNFR2 (Sino Biological); experiment: as above
Method: as §1, §2

[6] = biological target: T3, Fc tagged mouse TNFR1 (Sino Biological); experiment: as above
Method: as §1, §2

[7] = biological target: T4, Fc tagged mouse TNFR2 (Sino Biological) (mouse, UniProt P25119 23-258); experiment: SPR (Biacore T200) single cycle kinetics, Fc-tagged receptor captured on Protein A chip, TNF protein as analyte at 1.67-15 nM
T4 construct: Bought reagent; also called mTNFR2; mTNF2; not shown: Fc tag of the bought protein
T4 sequence (looked up): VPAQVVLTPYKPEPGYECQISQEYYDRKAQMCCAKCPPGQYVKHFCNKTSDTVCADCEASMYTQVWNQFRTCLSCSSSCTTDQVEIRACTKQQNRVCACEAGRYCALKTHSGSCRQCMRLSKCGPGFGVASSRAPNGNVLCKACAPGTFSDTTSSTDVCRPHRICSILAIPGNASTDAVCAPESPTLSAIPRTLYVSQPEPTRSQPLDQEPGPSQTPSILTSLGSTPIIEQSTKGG
Method: Single cycle kinetic analysis was performed using a Biacore T200 (serial no. 1909913) running Biacore T200 Evaluation Software V2.0.1 (Uppsala, Sweden). All experiments were run at 25° C. with HBS-P+ running buffer (pH 7.4) (GE Healthcare, Little Chalfont, UK).
as §1
Controls were used to ensure the integrity of the receptors during the Biacore run.

B1: TNF mutein B2 (ligand)
chain: VRSSSRTPSDKPVAHVVANPQAEGQLQWLNRRANALLANGVELRDNQLVVPSEGLYLIYSQVLFKGQGCPSTHVLLTHTISRITASYSGKVNLLSAIKSPCQRETPEGAEAKPWYEPIYLGGVFQLEKGDRLSAEINRPDYLDFAESGQVYFGIIAL
notes: Human TNF mutein, TASYSG at positions 84-89; not shown: C-terminal FLAG tag and His6 tag from vector pANT65
For B1, the Kd [1] was 0.0175 nM, the Kd [2] was 0.198 nM and the Kd [3] was 0.0624 nM. For the same binder, the Kd [4] was 0.0407 nM, the Kd [5] was 0.349 nM and the Kd [6] was 0.0864 nM. B1: no binding (tested: 15 nM) [7].

Source: US20220387557A1 (OXFORD UNIVERSITY INNOVATION, published 2022)
